Source: the nanobody polyreactivity screen of Harvey et al. (2022)

assay: yeast display, Sf9 membrane polyspecificity reagent, FACS + sequencing; frameworks hold sequencing errors
In short: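 Polyreactivity labels are assigned by the sorting gate from which each nanobody was recovered. The gates were low and high (top ~1%), set on anti-HA fluorescence for expression and streptavidin fluorescence for reagent binding. Before sorting, galactose-induced (36–48 hours) yeast display cells were stained for 1 hour at 4 °C with 10% biotinylated, detergent-solubilized Sf9 membrane reagent.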

Row | Sequence | polyreactivity (PSR sort gate)
1 | QVQLVESGGGLVQAGGSLRLSCAASGLIFYDNMGWYRQAPGKERELVAAISSSGGSTSYADSVKGRFTISRDNAKNTVYLQMNSLKPEDTAVYYCAADQYYYWYTHQSIGYDYWGQGTQVTVSS | low polyreactivity
2 | QVQLVESGGGLVQAGGSLRLSCAASGLIFYGNAMGWYRQAPGKERELVAAISRRGGRTYYADSVKGRFTISRDKAKNTVYLQMKSLKPEDTAVYYCAADVIYSGDYWGQGTQVTVSS | high polyreactivity
3 | QVQLVESGGGLVQAGGSLRLSCAASGLIFYINAMGWYRQAPGKERELVAVISGGGSTNYADSVKGRFTISRDNAKNTVYLQMNSLKPEDTAVYYCNARRSHSYRHYDYWGQGTQVTVSS | low polyreactivity
4 | QVQLVESGGGLVQAGGSLRLSCAASGLIFYKYAMGWYRQAPGKEREFVAAISGSGGSTYYADSVKGRFTISRDNAKNTVYLQMNSLKPEDTAVYYCAVRQRYGPARYDYWGQGTQVTVSS | high polyreactivity
5 | QVQLVESGGGLVQAGGSLRLSCAASGLIFYKYAMGWYRQAPGKERELVAAITSGGSTNYADSVKGRFTISRDNAKNTVYLQMNSLKPEDTAVYYCNADYHPYLVVRWWYPPVDYWGQGNQVTVSS | low polyreactivity
6 | QVQLVESGGGLVQAGGSLRLSCAASGLIFYRNALGWYRQEPGKERELVATISRRGGRTYYADSVKGRFTISRDNAKNTVYLQMNSLNPEDTAVYYCNADDYSSRGGYDSWGQGTQVTVSS | high polyreactivity
7 | QVQLVESGGGLVQAGGSLRLSCAASGLIFYRNAMGWYRQAPGKERELVAAISKNGGNTYYADSVKGRFTISRDNAKNTVFLQMNSLKTEDTAVYYCAARELYGPFGYWGQGTQVTVSS | high polyreactivity
8 | QVQLVESGGGLVQAGGSLRLSCAASGLIFYSNAMGWYRQAPGKERELVATISGSTGTTNYADSVKGRFTISRDNAKNTVYLQMNSLKPEDTAVYYCAAEWRRYEYADSWEYDYWGQGTQVTVSS | low polyreactivity
9 | QVQLVESGGGLVQAGGSLRLSCAASGLIFYSYAMGWYRQAHAKERELVAAITGGGSTNYADSVKGRFTISRDNAKNTVYLQMNSLKPEDTAVYYCAAQAYVEGVYRYDYWGQGTQVTVSS | low polyreactivity
10 | QVQLVESGGGLVQAGGSLRLSCAASGLIFYTYAMGWYRQAPGKERALVADINRSDGSTYYADSVKGRFTISRDNAKNTVYLQMNILKPEDTAVYYCAVVGPYYTRFGGRYYYWGQGTQVTVSS | low polyreactivity
11 | QVQLVESGGGLVQAGGSLRLSCAASGLIFYTYAMGWYRQAPGKERELVAAISYDGTRTYYADSVKGRFTISRDNAKNTVYLQMNSLKPEDTAVYYCTAAYRRGDDYWGQGTQVTVSS | high polyreactivity
12 | QVQLVESGGGLVQAGGSLRLSCAASGLIFYYYAMGWYRQAPGKEREFVAAINSSGDSTYYADSVKGRFTISRDNAKNTVYLQMNSLKPEDTAVYYCNVDWYLHEYDYWGQGTQVTVSS | low polyreactivity
13 | QVQLVESGGGLVQAGGSLRLSCAASGLIFYYYAMGWYRQAPGKEREFVAAISRSGGITRYADSVKGRFTISRDNAKNTVYLQMNSLKPEDTAVYYCAADAYPLTYDDYYWGQGTKVTVSS | high polyreactivity
14 | QVQLVESGGGLVQAGGSLRLSCAASGLIFYYYAMGWYRQAPGKERELVADIDRGGDTYYADSVKGRFTISRDNAKNTVYLQMNSLKPEDTAVYYGAAVDFYGYVPEFGYWGQGTQVTVSS | low polyreactivity
15 | QVQLVESGGGLVQAGGSLRLSCAASGLIFYYYTMGWYRQAPGKERELVAAITNGGRTNYADSVKGRFTISRDNAKNTVYLQMNSLKPEDTAVYYCNAVVHKYQRGPYYIKYDYWGQGTQVTVSS | high polyreactivity
16 | QVQLVESGGGLVQAGGSLRLSCAASGLIFYYYVMGWYRQAPGKERELVARISTSGGSTYYADSVKGRFTISRDNAKNTVYLQMNSLKPEDTAVYYCAARGYRQYGWDGYWGQGTQVTVSS | low polyreactivity
17 | QVQLVESGGGLVQAGGSLRLSCAASGLIIPFYAMGWYRQAPGKERELVAAISWSAGSTYYADSVKGRFTISRDNAKNTVYLQMNSLKPEDTADYYCATERNPADFYWGQGTQVTVSS | low polyreactivity
18 | QVQLVESGGGLVQAGGSLRLSCAASGLIIPFYAMGWYRQAPGKERELVAAISWSAGSTYYADSVKGRFTISRDNAKNTVYLQMNSLKPEDTAVYYCAATAYYYYDYDYWGQGTQVTVSS | low polyreactivity
19 | QVQLVESGGGLVQAGGSLRLSCAASGLIIRPYAMGWYRQAPGKERELVAAITSGGSTDYADSVKGRFTISRVNAKNSVYLQMYSRKPEDTAVYYCNGDIYPHDGYPWQGDYDYWGQGTQVTVSS | low polyreactivity
20 | QVQLVESGGGLVQAGGSLRLSCAASGLILGINAMGWYRQAPGKERELVAAISSSGGRTSYADSVKGRFTISRDNAKNTVYLQMNILKPEDTAVYYCAKRRTTYSHYDYWGQGTQVSVSS | low polyreactivity
21 | QVQLVESGGGLVQAGGSLRLSCAASGLILPDYAMGWYRQAPGKERELVAAISESAASTYYADSVKGRFTISRDNAKNTVYLQMNSLKPEDTAVYYCAAEVWCYSWYYWYYDGEYYWGQGTQVTVSS | high polyreactivity

Row | Sequence | polyreactivity (PSR sort gate)
22 | QVQLVESGGGLVQAGGSLRLSCAASGLILPYYAMGWYRQAPGKERELVAAISRTGGRTSYADSVKGRFTISRDNAKNTVYLQMNSLKPEDTAVYYCAAVGQSGGRRYDYWGQGTQVTVSS | high polyreactivity
23 | QVQLVESGGGLVQAGGSLRLSCAASGLILPYYAMGWYRQAPGTERELVAAISRTAGRTSYADSVKGRFTISRDNAKNTVYLQMNSLKPEDTAVYYCAAVGQSGGRRYDYWGQGTQVTVSS | high polyreactivity
24 | QVQLVESGGGLVQAGGSLRLSCAASGLILSDYAMGWYRQAPGKERELVATITSVGTTKYADSVKGRVTISRDNAKKTVYVQLHSLKPEDTAVYYCAAEFIRGYGESYDYWGQGTQVTVSS | low polyreactivity
25 | QVQLVESGGGLVQAGGSLRLSCAASGLILSGYTMGWYRPAPGKERELVAAISRSGGRTYYADSVKGRFTISRDNAKNTVYLQMNSLKPEDTAVYYCAAAKRTWRSDYWGQGTQVTVSS | high polyreactivity
26 | QVQLVESGGGLVQAGGSLRLSCAASGLILSSNAMGWYRQAPGKERELVAAITWDGDRTYADSVKGRFTISRDNAKNTVYLQMNSLKPEDTAVYYCAADKQYYWYDWSYVYWGQGTQVTVSS | low polyreactivity
27 | QVQLVESGGGLVQAGGSLRLSCAASGLILSSNARGWYRQAPGKETELVAAITWDGDRTYADSVKGRFTISRDNAKNTVYLQMNSLKPEDTAVYYCAAYPYYYYGYDYWGQGTQVTVSS | low polyreactivity
28 | QVQLVESGGGLVQAGGSLRLSCAASGLILYYYAMGWYRQAPGKERELVAAISRRDGDTYYADSVKGRFTISRDNAKNTVYLQMNSLKPEDTAVYYCAAERRWSWVVRDDYWGQGTQVTVSS | low polyreactivity
29 | QVQLVESGGGLVQAGGSLRLSCAASGLISYAYAMGWYRQAPGKERELVAAIRSSGSTYYADSVKGRFTISLDNAKNTVYLQMNSLKPEDTAVYYCAKRNPIKYYGGGYWGQGTQVTVSS | high polyreactivity
30 | QVQLVESGGGLVQAGGSLRLSCAASGLIVVHYAMGWYSQAPGKVREFVAAITWSGGSTYYADSVKGRFTISRDNAKNTVYLQMNSLKPEDTAVYYCAVDGFRPGTASFGYWGQGTQVTVSS | low polyreactivity
31 | QVQLVESGGGLVQAGGSLRLSCAASGLIVWYYAMGWYRQAPGKERELVATITSRGGSTYYADSVKGRFTISRDNAKNTVYLQMNSLKPEDTAVYYCARENPGDSYYDYWGQATQVTVSS | low polyreactivity
32 | QVQLVESGGGLVQAGGSLRLSCAASGLIYFYAMGWYRQEPGKERELVAAISSSGGRTYYADSVKGRFTISRDNAKNTVYLQMNSLKPEDTAVYYCAVVSSHYKGPGRNGYDYWGQGTQVTVSS | high polyreactivity
33 | QVQLVESGGGLVQAGGSLRLSCAASGLIYFYYDMGWYRQAPGKERELVAAISQRGGSTYYADSVKGRFTISRDNAKNTVYLQMNSLKPEDTAVYYCNAYSQRYGYYYWGQGTQVTVSS | high polyreactivity
34 | QVQLVESGGGLVQAGGSLRLSCAASGLIYTPYAMGWYRQAPGKERELVAAINYGGSRTYYADSVKGRFTISRDNAKNTVYLQMNSLKPEDTAVYYCNKPGNYVWRRSWDFDYWGQGTQVTVSS | high polyreactivity
35 | QVQLVESGGGLVQAGGSLRLSCAASGLMFTRYAMGWYRQAPGKERELVAAISITGGSTYYADSVKGRFTFSRDNAKNTVYLQMNSLKPEDTAVYYCAAQRQVTTGIYGYWGQGTQVTVSS | high polyreactivity
36 | QVQLVESGGGLVQAGGSLRLSCAASGLNFIRYAMGWYRPAPGKERELVAAISWPGGNTYYADSVKGRFTISRDNAKNTVYLQMISQKPEDTAVYYCAAVGTWQHRSYGYWGQGTQVTVSS | high polyreactivity
37 | QVQLVESGGGLVQAGGSLRLSCAASGLNFWYYAMGWYRQAPGKERELVAAISWGGGSTYYADSVKGRFTISRDNAKNTVYLLMNSLKPEDTAVYYCAADSSYWYGTECDYWGQGTQVTVSS | high polyreactivity
38 | QVQLVESGGGLVQAGGSLRLSCAASGLNFYWYAMGWYRQAPGKERELFAAINWSGGRTHYADSVKGRFTMSRDNANNTVYFQMNCLKPEDTAVYYCAASPYWFTRYYPKTRETMDYWGQGTQVTVST | high polyreactivity
39 | QVQLVESGGGLVQAGGSLRLSCAASGLPYAMGWYRQAPGKERELVAAISSSGGSTYYADSVKGRFTISRDNAKNNVYLQMNSLKPEDTAVYYCNRDIGGTSVLDDYWGQGTQVTVSS | low polyreactivity
40 | QVQLVESGGGLVQAGGSLRLSCAASGLRFNVYAMGWYRQAPGKERELVAAITSGGSTHYADSVKGRFTISRDNAKNTVYLQMNSLKPEDTAVYYCNKELATARGQSLYRTYSGYGYRGQGTQVTVSS | high polyreactivity
41 | QVQLVESGGGLVQAGGSLRLSCAASGLSFSGNVMGWYRQAPGKERELVAAIDRSGGSTYYADSVKGRFTISRDNAQKTVYLQMNSLKPEDTAVYYCAVSSYPNHSRSWDDYWGQGTQVTVSS | low polyreactivity
